Publication PMC4914101 (Nucleic Acids Research, 2016)
Substitutions are numbered along the chain they refer to. Where two headings read alike, the source gives them in different places.

T1: SART3 HAT repeat domain (residues 94–611) (human, UniProt Q15020 94-611)
T1 sequence (looked up): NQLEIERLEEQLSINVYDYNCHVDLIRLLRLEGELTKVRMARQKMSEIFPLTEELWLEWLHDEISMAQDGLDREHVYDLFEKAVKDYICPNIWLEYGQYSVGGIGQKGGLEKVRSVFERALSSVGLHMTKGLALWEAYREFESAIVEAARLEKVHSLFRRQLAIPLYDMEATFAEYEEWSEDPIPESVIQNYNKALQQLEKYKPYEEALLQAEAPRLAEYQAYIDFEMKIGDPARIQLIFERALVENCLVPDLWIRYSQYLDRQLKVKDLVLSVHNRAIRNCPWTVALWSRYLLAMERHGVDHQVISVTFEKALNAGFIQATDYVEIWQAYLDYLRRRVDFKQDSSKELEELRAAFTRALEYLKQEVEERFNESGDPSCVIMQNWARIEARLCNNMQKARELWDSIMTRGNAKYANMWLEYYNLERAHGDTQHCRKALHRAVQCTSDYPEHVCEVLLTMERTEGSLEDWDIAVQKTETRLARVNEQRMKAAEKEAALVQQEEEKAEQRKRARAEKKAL

B1: DUSP-UBL domains of human USP15 (residues 1–226) (domain or fragment, UniProt Q9Y4E8 1-226, looked up)
chain: MAEGGAADLDTQRSDIATLLKTSLRKGDTWYLVDSRWFKQWKKYVGFDSWDKYQMGDQNVYPGPIDNSGLLKDGDAQSLKEHLIDELDYILLPTEGWNKLVSWYTLMEGQEPIARKVVEQGMFVKHCKVEVYLTELKLCENGNMNNVVTRRFSKADTIDTIEKEIRKIFSIPDEKETRLWNKYMSNTFEPLNKPDSTIQDAGLYQGQVLVIEQKNEDGTWPRGPST
B2: DUSP-UBL domains of human USP4 (residues 1–230) (domain or fragment, UniProt Q13107 1-230, looked up)
chain: MAEGGGCRERPDAETQKSELGPLMRTTLQRGAQWYLIDSRWFKQWKKYVGFDSWDMYNVGEHNLFPGPIDNSGLFSDPESQTLKEHLIDELDYVLVPTEAWNKLLNWYGCVEGQQPIVRKVVEHGLFVKHCKVEVYLLELKLCENSDPTNVLSCHFSKADTIATIEKEMRKLFNIPAERETRLWNKYMSNTYEQLSKLDNTVQDAGLYQGQVLVIEPQNEDGTWPRQTLQ
B3: SART3 HAT-C with Lα (residues 278–611) (domain or fragment, human, UniProt Q15020 278-611, looked up)
chain: PESVIQNYNKALQQLEKYKPYEEALLQAEAPRLAEYQAYIDFEMKIGDPARIQLIFERALVENCLVPDLWIRYSQYLDRQLKVKDLVLSVHNRAIRNCPWTVALWSRYLLAMERHGVDHQVISVTFEKALNAGFIQATDYVEIWQAYLDYLRRRVDFKQDSSKELEELRAAFTRALEYLKQEVEERFNESGDPSCVIMQNWARIEARLCNNMQKARELWDSIMTRGNAKYANMWLEYYNLERAHGDTQHCRKALHRAVQCTSDYPEHVCEVLLTMERTEGSLEDWDIAVQKTETRLARVNEQRMKAAEKEAALVQQEEEKAEQRKRARAEKKAL
B4: USP11^L4 (USP11 DUSP-UBL with the linker replaced by the USP4 linker) (domain or fragment, human, UniProt P51784 73-288, looked up)
chain: EELPGLDSQWRQIENGESGRERPLRAGESWFLVEKHWYKQWEAYVQGGDQDSSTFPGCINNATLFQDEINWRLKEGLVEGEDYVLLPAAAWHYLVSWYGLEHGQPPIERKVIEHGLFVKHCKVEVYPVELLLVRHNDLGKSHTVQFSHTDSIGLVLRTARERFLVEPQEDTRLWAKNSEGSLDRLYDTHITVLDAALETGQLIIMETRKKDGTWPSAQL
B5: USP11^L15 (USP11 DUSP-UBL with the linker replaced by the USP15 linker) (domain or fragment, human, UniProt P51784 73-288, looked up)
chain: B4 chain with H114Q, L116M

Experiments:
[1] = molecular target: B3; test: ITC
[2] = molecular target: T1, SART3 HAT repeat domain (residues …); test: ITC
[3] = molecular target: mouse importin-α2 (residues 70–498) (mouse, UniProt P52293 70-498); test: ITC
crystal structure = molecular target: the molecule itself; test: crystal structure
[4] = molecular target: T1, SART3 HAT repeat domain (residues …); test: ITC; remark: listed apart in the source

| Kd [1] [nM] | dH [1] [kcal/mol] | stoichiometry N [1] | Kd [2] [nM] | dH [2] [kcal/mol] | stoichiometry N [2] | Kd [4] [nM] | dH [4] [kcal/mol] | stoichiometry N [4] | Binder | other results |
| --- | --- | --- | --- | --- | --- | --- | --- | --- | --- | --- |
| 140 ± 60 | -17.7 ± 0.5 | 1.09 ± 0.01 | 190 ± 40 | -16.1 ± 0.1 | 0.99 ± 0.01 | – | – | – | B1 | – |
| 580 ± 30 | -21.1 ± 0.4 | 1.05 ± 0.01 | 880 ± 130 | -21.6 ± 0.6 | 1.07 ± 0.02 | – | – | – | B2 | – |
| – | – | – | – | – | – | – | – | – | RKRARAEKKALKKKKKIRGPEKRGADEDDEKEWGDDEEEQPSKRRRVEN (domain or fragment) [SART3 NLS (residues 601–649)] | Kd [3]: 210 ± 10 nM; dH [3]: -8.6 ± 0.2 kcal/mol; stoichiometry N [3]: 1.01 ± 0.01 |
| – | – | – | – | – | – | – | – | – | B3 | binding result (crystal structure): binds |
| – | – | – | – | – | – | 20100 ± 4360 | -9.1 ± 0.4 | 0.89 ± 0.15 | B4 | – |
| – | – | – | – | – | – | 18700 ± 2250 | -5.7 ± 0.7 | 1.06 ± 0.09 | B5 | – |
